Test results published in paper PMC7118133, “Dual functions of Aire CARD multimerization in the transcriptional regulation of T cell tolerance” (Nature Communications, 2020).

Assays:
[1] = molecular target: the molecule itself; assay: negative-stain electron microscopy; filament formation of purified hAire CARD variants refolded from 6 M GdHCl by dialysis (20 mM HEPES pH 7.5, 1 M KCl, 5 mM βME, 16 h, 4 °C) and kept at 4 °C for another 24 h; diluted in TNE buffer to ~50–200 µg/ml, uranyl formate stain
[2] = molecular target: the molecule itself; assay: negative-stain electron microscopy; filament formation of purified mAire CARD variants after cleavage of the NusA tag with HRV 3C (4 °C, 16 h); diluted in TNE buffer (100 mM Tris pH 8, 50 mM NaCl, 10 mM EDTA) to ~50–200 µg/ml, uranyl formate stain; WT in Fig. 1b also denatured and refolded

B1: human Aire (hAire) CARD, wild type (domain or fragment, UniProt O43918 1-106, looked up)
chain: MATDAALRRLLRLHRTEIAVAVDSAFPLLHALADHDVVPEDKFQETLHLKEKEGCPQAFHALLSWLLTQDSTAILDFWRVLFKDYNLERYGRLQPILDSFPKDVDL
notes: Autoimmune Regulator (Aire), human, CARD, aa 1-106, subcloned into pET47; Construct His6-3C-hAire CARD; also called WT hAire CARD
binding result [1]: binds

B2: mouse Aire (mAire) CARD, wild type (domain or fragment, UniProt Q9Z0E3 1-105, looked up)
chain: MAGGDGMLRRLLRLHRTEIAVAIDSAFPLLHALADHDVVPEDKFQETLRLKEKEGCPQAFHALLSWLLTRDSGAILDFWRILFKDYNLERYSRLHSILDGFPKDV
notes: Autoimmune Regulator (Aire), mouse, CARD, aa 1-105, subcloned into pET50; Forms filaments after the NusA tag is cleaved off at the 3C site; also called WT mAire CARD; source: E. coli BL21(DE3), co-expressed with GroEL/ES + trigger factor, purified (Ni-NTA); tag cleaved with HRV 3C protease; not shown: His6-NusA-His6, N-terminal, cleaved
binding result [2]: binds

B3: mouse Aire (mAire) CARD K51A/E52A (domain or fragment, UniProt Q9Z0E3 1-105, looked up)
chain: MAGGDGMLRRLLRLHRTEIAVAIDSAFPLLHALADHDVVPEDKFQETLRLAAKEGCPQAFHALLSWLLTRDSGAILDFWRILFKDYNLERYSRLHSILDGFPKDV
notes: Autoimmune Regulator (Aire), mouse, CARD, aa 1-105, subcloned into pET50; source: E. coli BL21(DE3), co-expressed with GroEL/ES + trigger factor, purified (Ni-NTA; tag cleaved with HRV 3C protease); not shown: His6-NusA-His6, N-terminal, cleaved
binding result [2]: binds

B4: mouse Aire (mAire) CARD R70A/D71A (domain or fragment, UniProt Q9Z0E3 1-105, looked up)
chain: MAGGDGMLRRLLRLHRTEIAVAIDSAFPLLHALADHDVVPEDKFQETLRLKEKEGCPQAFHALLSWLLTAASGAILDFWRILFKDYNLERYSRLHSILDGFPKDV
notes: Autoimmune Regulator (Aire), mouse, CARD, aa 1-105, subcloned into pET50; The results print R70A/D71A, the methods R70A/R71A; also called R70A/R71A (so printed in the methods); source: E. coli BL21(DE3), co-expressed with GroEL/ES + trigger factor, induced at 25 °C for 4 h, purified (Ni-NTA; tag cleaved with HRV 3C protease); not shown: His6-NusA-His6, N-terminal, cleaved
binding result [2]: binds

B5: mouse Aire (mAire) CARD K53A/E54A (domain or fragment, UniProt Q9Z0E3 1-105, looked up)
chain: MAGGDGMLRRLLRLHRTEIAVAIDSAFPLLHALADHDVVPEDKFQETLRLKEAAGCPQAFHALLSWLLTRDSGAILDFWRILFKDYNLERYSRLHSILDGFPKDV
notes: as for B3
binding result [2]: binds
